Where a chain is given by its changes, count along the chain named.
B1: Example 28 (peptide)
peptide: YXEGTXTSDXSKXLDXKAQXEFIXXLIEGGPSSGAPPPS
modifications: Aib2, αMeF(2F)6, 4Pal10, αMeL13, Orn16, Aib20, D-Glu24, αMeY25, K12 and K17: K(AEEA2-(γ-Glu)-CO-(CH2)12-CO2H), C-terminal NH2
B2: Example 3 (peptide)
peptide: B1 peptide with K12I, P31K
modifications: Aib2, αMeF(2F)6, 4Pal10, αMeL13, Orn16, Aib20, D-Glu24, αMeY25, K17 and K31: K(AEEA2-(γ-Glu)-(4-(4-iodophenyl)butanoyl)), C-terminal NH2
B3: Example 34 (peptide)
peptide: B1 peptide with K12I, P31K
modifications: Aib2, αMeF(2F)6, 4Pal10, αMeL13, Orn16, Aib20, D-Glu24, αMeY25, K17 and K31: K(AEEA2-(εK)-(γ-Glu)-CO-(CH2)12-CO2H), C-terminal NH2
B4: Example 47 (peptide)
peptide: B1 peptide with K12I, F22X, P31K
modifications: Aib2, αMeF6, 4Pal10, αMeL13, Orn16, Aib20, αMeF22, D-Glu24, αMeY25, K17 and K31: K(AEEA2-(γ-Glu)-CO-(CH2)12-CO2H), C-terminal NH2
B5: Example 51 (peptide)
peptide: B1 peptide with K12I, P31K
modifications: Aib2, αMeF(2F)6, αMeL10, αMeL13, Orn16, Aib20, D-Glu24, αMeY25, K17 and K31: K(AEEA2-(γ-Glu)-CO-(CH2)12-CO2H), C-terminal NH2
B6: Example 49 (peptide)
peptide: B1 peptide with X10Y, S11X, K12I, P31K
modifications: Aib2, αMeF(2F)6, αMeS11, αMeL13, Orn16, Aib20, D-Glu24, αMeY25, K17 and K31: K(AEEA2-(γ-Glu)-CO-(CH2)12-CO2H), C-terminal NH2
B7: Example 50 (peptide)
peptide: B1 peptide with X10Y, S11X, K12I, P31K
modifications: Aib2, αMeF(2F)6, Aib11, αMeL13, Orn16, Aib20, D-Glu24, αMeY25, K17 and K31: K(AEEA2-(γ-Glu)-CO-(CH2)12-CO2H), C-terminal NH2
B8: Example 33 (peptide)
peptide: B1 peptide with K12I, P31K
modifications: Aib2, αMeF(2F)6, 4Pal10, αMeL13, Orn16, Aib20, D-Glu24, αMeY25, K17 and K31: K(AEEA2-(εK)-CO-(CH2)12-CO2H), C-terminal NH2
B9: Example 46 (peptide)
peptide: B1 peptide with K12I, P31K
modifications: Aib2, αMeF6, 4Pal10, αMeF13, Orn16, Aib20, D-Glu24, αMeY25, K17 and K31: K(AEEA2-(γ-Glu)-CO-(CH2)12-CO2H), C-terminal NH2
B10: Example 42 (peptide)
peptide: B1 peptide with K12I, P31K
modifications: Aib2, αMeF(2F)6, 4Pal10, αMeL13, Orn16, Aib20, D-Glu24, αMeY25, K17 and K31: K((γ-Glu)-AEEA-CO-(CH2)12-CO2H), C-terminal NH2
B11: Example 39 (peptide)
peptide: B1 peptide with K12I, P31K
modifications: Aib2, αMeF(2F)6, 4Pal10, αMeL13, Orn16, Aib20, D-Glu24, αMeY25, K17 and K31: K((εK)-(γ-Glu)-(γ-Glu)-CO-(CH2)12-CO2H), C-terminal NH2
B12: Example 45 (peptide)
peptide: B1 peptide with K12I, P31K
modifications: Aib2, αMeF6, αMeF10, αMeL13, Orn16, Aib20, D-Glu24, αMeY25, K17 and K31: K(AEEA2-(γ-Glu)-CO-(CH2)12-CO2H), C-terminal NH2
B13: Example 53 (peptide)
peptide: B1 peptide with K12I, P31K
modifications: Aib2, αMeF(2F)6, Ac5c10, αMeL13, Orn16, Aib20, D-Glu24, αMeY25, K17 and K31: K(AEEA2-(γ-Glu)-CO-(CH2)12-CO2H), C-terminal NH2

Key:
Experiment in all cases: cell-based or functional assay
human GLP-1 receptor = human GLP-1 receptor (human, UniProt P43220 24-463)
human glucagon receptor = human glucagon receptor (human, UniProt P47871 26-477)
human GIP receptor = biological target: T1, human GIP receptor (human, UniProt P48546 22-466)
T1 sequence (looked up): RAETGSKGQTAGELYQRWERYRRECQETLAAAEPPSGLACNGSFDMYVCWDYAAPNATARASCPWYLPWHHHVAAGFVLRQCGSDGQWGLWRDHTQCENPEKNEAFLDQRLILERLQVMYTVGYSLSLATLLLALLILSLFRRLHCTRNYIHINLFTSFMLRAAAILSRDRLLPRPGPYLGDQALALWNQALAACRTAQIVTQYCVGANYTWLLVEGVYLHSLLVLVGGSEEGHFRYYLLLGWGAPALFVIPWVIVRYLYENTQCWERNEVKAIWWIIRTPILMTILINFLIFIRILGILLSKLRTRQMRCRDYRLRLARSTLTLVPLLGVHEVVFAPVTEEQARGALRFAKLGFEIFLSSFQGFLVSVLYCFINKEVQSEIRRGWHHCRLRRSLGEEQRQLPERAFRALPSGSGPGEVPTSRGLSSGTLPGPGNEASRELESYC

Binder | EC50, cAMP (human GLP-1 receptor) | EC50, cAMP (human glucagon receptor) | EC50, cAMP (human GIP receptor) | Emax, cAMP (human GIP receptor) | Emax, cAMP (human GLP-1 receptor)
B1 | 2.65 nM | > 9950 nM | 0.0554 nM | 95.4% | 
B2 | 0.223 nM | > 9950 nM | 0.0133 nM |  | 
B3 | 1 nM | > 9950 nM | 0.0148 nM |  | 
B4 | 1.94 nM | > 9950 nM | 0.0138 nM |  | 87.1%
B5 | 0.89 nM | > 9950 nM | 0.11 nM |  | 
B6 | 0.398 nM | > 9950 nM | 0.0205 nM | 91% | 97.3%
B7 | 0.273 nM | > 9950 nM | 0.0168 nM | 94.7% | 
B8 | 0.37 nM | > 9950 nM | 0.00957 nM |  | 
B9 | 3.29 nM | > 9950 nM | 0.0801 nM | 89.5% | 
B10 | 0.429 nM | > 9950 nM | 0.0103 nM |  | 
B11 | 0.358 nM | > 9950 nM | 0.0238 nM |  | 
B12 | 9.18 nM | > 9950 nM | 0.0517 nM |  | 
B13 | 0.18 nM | > 9950 nM | 0.0841 nM |  | 

From patent publication US20230265151A1, “GIP/GLP1 CO-AGONIST COMPOUNDS” (priority 2020, published 2023)
